In the nanobody polyreactivity screen of Harvey et al. (2022):

Experiment: yeast display, Sf9 membrane polyspecificity reagent, FACS + sequencing; frameworks hold sequencing errors
Summary of the method: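 Synthetic nanobody libraries on Saccharomyces cerevisiae BJ5465 were galactose-induced for 36–48 hours, stained 1 hour at 4 °C with 10% biotinylated, detergent-solubilized Sf9 membrane reagent and enriched on streptavidin microbeads. FACS then separated cells into low and high (top ~1%) gates by anti-HA (expression) and streptavidin (reagent binding) fluorescence. Genes were colony-PCR amplified, MiSeq 2 × 250 sequenced and CDR-length filtered. A clone's polyreactivity label is that of its gate of origin.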

Row | Sequence | polyreactivity (PSR sort gate)
1 | QVQLVESGGGLVQAGGSLRLSCAASGLTFVWYAMGWYRQAPGKERELVAAIRGGGSTYYADSVKGRFTISRDNAKNTVYLQMNSLKPEDTAVYYCAAPYARCLFYLLHYPRFSYDYWGQGTQVTVSS | high polyreactivity
2 | QVQLVESGGGLVQAGGSLRLSCAASGSTFDGYAMGWYTQAPGKERELVAAISKNGGRTYYADSVKGRFTISRDNAKNTVYLQMNSLKPEDTAVYYCAIDIIKYDYDYWGQGTQVTVSS | low polyreactivity
3 | QVQLVESGGGLVQAGGSLRLSCAASGLTLTGYAMGWYRQAPGKERELVAAISQDGGNTYYADSVKGRFTISRDNAKNTVYLQMNSLKREDTAVYYCAAVGRAKYYYWGQGTQVTVSS | low polyreactivity
4 | QVQLVESGGGLVQAGGSLRLTCAASGRIFDGYAMGWYRQPPRKERELVAAISSRGGRTYYADSVKGRFTISRDNAKNTVYLQMNSLKPEDTAVYYCAADDPYGEGDYWGQGTQVTVSS | low polyreactivity
5 | QVQLVESGGGLDAAGGSLRLSCAASGSTVIAYAMGWYRQAPGKEWELVAVMTSRGGRTYYADSVKGRFTISRDNAKNTVYLQMNSQKPEDTAVYYCATRSYRYLRSYDYWGQGTQVTVSS | high polyreactivity
6 | QVQLVESGGGLVQAGGSLRLSCAASGSTFRIYAMGWYRQAPGKERELVAAITSGGDTNYADSVKGRFTISRDNAKNTVYLQMNSLKPEDTAVYYCAADGHSVYTELDYWGQGTQVTVSS | low polyreactivity
7 | QVQLVESGGGLVQAGGSLRLSCAASGRTFRAYAMGWYRQAPGKERELVAAITSGGSTYADSVKGRFTISRDNAKNTVYLQMNSLKPEDTAVYYCAADGYKLFYSKFRYVQYGYWGQGTQVTVSS | high polyreactivity
8 | QVQLVESGGGLVQAGGSLRLSCAASGFIFKRNAMGWYRQATGNERELVAAITKSGVNTYYADSVKGRFTISRDNAKNTVYLQMTSLKPEDTAVYYCAKTLTYGFRRYDYWGQGTQVTVSS | high polyreactivity
9 | QVQLVESVGGLVQAGGSLRLTCAASGSIFKYYDMGWYRQAPGTERELVAAISSNGGRTYYADSVKGRFTISRDNAKNTDYLQMNSLKPEDTAVYYCARRFRRTGESEYDYWGQGTQVNVSS | high polyreactivity
10 | QVQLVESGGGLVQAGGSLGLSCAATGSTIPYNAMGWYRQAPGKERELVAAINSAGGTNYADSVKGRFTISRDNAKNTVYLQMNSRKPEDTAVYYCAADGSGYYDWYYYWGQGTQVTVSS | low polyreactivity
11 | QVQLVESGGGLDQAGGSLRLSCAASGLTFAKYAMGWYRQAPGKERELVAAIRSGDDTTYADSVKGRFTISRDNAKNTVYLQMNSLKPEDTAVYYCAARYYRTWHGGFGYWGQGTQVTVSS | high polyreactivity
12 | QVHLVESGGGLVQAGGSLRLSCAASGRTFRDYTMGWYRQAPGKEREFVAAISSTGSTNYADSVKGRFTISRDNAKNTVYLQMNSLKPEDTAVYYCAADGRRWLGWYGYYYWGQGTQVTVSS | low polyreactivity
13 | QVQLVESGGGLVQAGGSLRLSCAASGSTFYWYAMGWYRQAPGKERELVASISWSGGRTYYADSVKGRFTISRDTAKNTVYLQMNSLKPEDTAVYYCAARRKGRYYYWGQGTQVTVSS | high polyreactivity
14 | QVQLVESGGGLVHAGGSLRVSCAASGSISDSYAMGWYREAPGKERELVAAITSGDSTYYADSVKGRFTISLDNAKNTVYLQMNSVKPEDTAVYYSAKRVSRVRGYGFTDWSEYDYWGQGTQVTVSS | low polyreactivity
15 | QVQLVESGGGLVQAGGSLRLSCAASGSIFYYYTMGWYRQSPGKERELVAAIRWSSGTTYYADSVKGRFTISRDKAKNTVYLQINSLKPEDTAVYYCAAGGHARTWYAYYYWGQGTQVTVSS | low polyreactivity
16 | QVQLVESGGGLVQAGGSLRLSCAASGRTFTGYAMGWYRQAPGKERELVAAMSASGGSTYYADSVKGRFTISRDNAKNTVYLQMNSLKPEDTAVYYCAAETWYSVLWEEGYDYWGQGTQVTVSS | low polyreactivity
17 | QVQLVESGGGLVQAGGSLRLSCAASGRIFGLYARGWSRQAPGKERELVAAYADSVKGRFTISRENAKNTVYLQMNSLKPEDTAVYYCAKGPLYAGYSIDLRDFNYWGQGTQVTVSS | low polyreactivity
